Here are results for nine molecules from publication PMC7809202, “Identification of fidelity-governing factors in human recombinases DMC1 and RAD51 from cryo-EM structures” (Nature Communications, 2021).

One series concerns the target T1, human RAD51 (Homo sapiens, UniProt Q06609, V273P/D274G).
T1 construct: untagged as described, human cDNA in pET11, E. coli BLR pRARE host; helical filament on dsDNA
T1 sequence (Q06609 2-339 V273P/D274G): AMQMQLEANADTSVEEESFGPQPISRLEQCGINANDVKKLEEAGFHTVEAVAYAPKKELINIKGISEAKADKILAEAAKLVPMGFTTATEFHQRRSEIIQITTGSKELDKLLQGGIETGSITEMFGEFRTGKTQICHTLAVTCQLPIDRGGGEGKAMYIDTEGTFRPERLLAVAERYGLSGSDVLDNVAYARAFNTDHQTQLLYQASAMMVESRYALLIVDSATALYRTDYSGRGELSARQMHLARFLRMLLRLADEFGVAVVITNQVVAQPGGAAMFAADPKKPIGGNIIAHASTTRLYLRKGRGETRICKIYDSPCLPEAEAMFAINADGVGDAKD
The series is described as follows: cryo-EM structure of filament. The following applies: 2 mM AMP-PNP, 5 mM CaCl2, pH 7.5, 37 °C; homologous dsDNA filament; ATP-binding site.

Series [1] deals with the molecule itself. The series is described as follows: cryo-EM structure; helical filaments: 4 uM DMC1 (or RAD51) protein with 24 uM nucleotides of ssDNA (presynaptic) or dsDNA (postsynaptic) in 35 mM Tris-HCl pH 7.5, 108 mM KCl, 1 mM DTT, 2 mM AMP-PNP, 5 mM CaCl2, 37 °C, 30 min; helical reconstruction; protomer to protomer within a nucleoprotein filament.
The target of another series is T2, DMC1-Q244M (Qm) (Homo sapiens, UniProt Q14565 1-340, Q244M).
T2 sequence: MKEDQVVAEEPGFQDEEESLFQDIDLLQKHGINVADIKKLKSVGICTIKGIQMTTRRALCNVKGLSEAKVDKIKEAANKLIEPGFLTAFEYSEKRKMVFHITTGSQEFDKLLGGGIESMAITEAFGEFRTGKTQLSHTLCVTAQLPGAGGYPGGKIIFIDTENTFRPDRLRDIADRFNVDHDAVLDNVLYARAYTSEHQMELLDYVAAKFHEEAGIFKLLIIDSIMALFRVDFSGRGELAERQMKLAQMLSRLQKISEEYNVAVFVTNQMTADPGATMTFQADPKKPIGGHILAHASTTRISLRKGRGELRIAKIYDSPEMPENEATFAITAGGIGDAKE
In words: cryo-EM structure; DNA too flexible to be observed; EMSA: 35 mM Tris-HCl pH 7.5, 1 mM DTT, 10 mM MgCl2, 100 ng/ul BSA, 50 mM KCl, 2 mM ATP, 37 °C 10 min; DNA 3 uM nucleotides or base pairs. To be noted: protein: recombinant; tags: His6; blunt. (In general: A gel shift assay detects complexes by their altered migration in electrophoresis.)

The target of series [2] is T3, DMC1 WT (Homo sapiens, UniProt Q14565 1-340).
T3 sequence: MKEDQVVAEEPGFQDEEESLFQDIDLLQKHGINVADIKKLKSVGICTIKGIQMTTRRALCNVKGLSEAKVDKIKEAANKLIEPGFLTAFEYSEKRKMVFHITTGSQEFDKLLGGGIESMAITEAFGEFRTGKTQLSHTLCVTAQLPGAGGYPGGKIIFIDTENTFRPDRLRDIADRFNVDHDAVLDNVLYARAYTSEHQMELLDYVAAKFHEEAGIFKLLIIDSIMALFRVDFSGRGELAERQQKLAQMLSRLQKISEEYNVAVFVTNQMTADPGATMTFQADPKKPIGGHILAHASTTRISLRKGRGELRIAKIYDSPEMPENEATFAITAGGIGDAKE
The series is described as follows: cryo-EM structure; EMSA: 35 mM Tris-HCl pH 7.5, 1 mM DTT, 10 mM MgCl2, 100 ng/ul BSA, 50 mM KCl, 2 mM ATP, 37 °C 10 min; DNA 3 uM nucleotides or base pairs. To be noted: protein: recombinant, tags: His6, blunt.

For another series, the target named is T4, DMC1-PvGd (Homo sapiens, UniProt Q14565 1-340, P274V;G275D).
T4 sequence: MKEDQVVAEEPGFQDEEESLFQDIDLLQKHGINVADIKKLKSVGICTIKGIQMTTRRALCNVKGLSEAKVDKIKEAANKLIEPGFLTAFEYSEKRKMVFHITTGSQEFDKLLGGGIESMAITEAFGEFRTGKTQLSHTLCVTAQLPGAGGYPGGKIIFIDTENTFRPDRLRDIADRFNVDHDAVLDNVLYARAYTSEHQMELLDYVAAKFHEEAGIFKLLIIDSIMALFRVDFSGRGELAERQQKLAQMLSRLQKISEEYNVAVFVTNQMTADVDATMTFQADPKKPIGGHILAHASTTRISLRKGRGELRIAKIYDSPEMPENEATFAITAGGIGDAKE
In words: EMSA; 2 mM ATP, 10 mM Mg2+; EMSA: 35 mM Tris-HCl pH 7.5, 1 mM DTT, 10 mM MgCl2, 100 ng/ul BSA, 50 mM KCl, 2 mM ATP, 37 °C 10 min; DNA 3 uM nucleotides or base pairs. The following applies: protein: recombinant, tags: His6.

For the next series, the target named is T5, DMC1-QmPvGd (Homo sapiens, UniProt Q14565 1-340, Q244M;P274V;G275D).
T5 sequence: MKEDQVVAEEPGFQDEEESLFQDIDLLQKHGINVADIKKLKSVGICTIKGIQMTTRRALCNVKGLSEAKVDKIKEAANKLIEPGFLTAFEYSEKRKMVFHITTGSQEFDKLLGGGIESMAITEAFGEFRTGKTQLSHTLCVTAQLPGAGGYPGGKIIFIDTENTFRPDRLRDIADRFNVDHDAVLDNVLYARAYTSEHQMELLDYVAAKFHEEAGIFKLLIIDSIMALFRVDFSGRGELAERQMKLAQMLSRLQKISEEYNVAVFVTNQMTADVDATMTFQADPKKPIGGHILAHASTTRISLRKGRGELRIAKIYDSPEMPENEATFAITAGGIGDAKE
The description is as above. To be noted: protein: recombinant, tags: His6.

In series [3] the target is T3, DMC1 WT. In words: cryo-EM structure; AMP-PNP; EMSA: 35 mM Tris-HCl pH 7.5, 1 mM DTT, 10 mM MgCl2, 100 ng/ul BSA, 50 mM KCl, 2 mM ATP, 37 °C 10 min; DNA 3 uM nucleotides or base pairs. The following applies: protein: recombinant; tags: His6; single strand.
[4] abbreviates: label: 5'-32P (EMSA), single strand.
The mark [5] stands for this setting: label: 5'-32P on Oligo 1, blunt.

For `Nc1ncnc2c1ncn2[C@@H]1O[C@H](COP(=O)(O)OP(=O)(O)NP(=O)(O)O)[C@@H](O)[C@H]1O` [AMP-PNP], the “cryo-EM structure of filament” value at human RAD51 was “solved the structure of the dsDNA filaments of the double mutant RAD51-VpDg”.

B1: human DMC1 (wild type) (natural protein)
chain: MKEDQVVAEEPGFQDEEESLFQDIDLLQKHGINVADIKKLKSVGICTIKGIQMTTRRALCNVKGLSEAKVDKIKEAANKLIEPGFLTAFEYSEKRKMVFHITTGSQEFDKLLGGGIESMAITEAFGEFRTGKTQLSHTLCVTAQLPGAGGYPGGKIIFIDTENTFRPDRLRDIADRFNVDHDAVLDNVLYARAYTSEHQMELLDYVAAKFHEEAGIFKLLIIDSIMALFRVDFSGRGELAERQQKLAQMLSRLQKISEEYNVAVFVTNQMTADPGATMTFQADPKKPIGGHILAHASTTRISLRKGRGELRIAKIYDSPEMPENEATFAITAGGIGDAKE
notes: DMC1, human; cDNA in vector pRSFDuet; Protomer of a helical filament assembled on ssDNA or dsDNA with AMP-PNP and Ca2+; also called DMC1-WT; WT DMC1; source: E. coli RecA-deficient BLR strain with pRARE, purified (TALON, Source Q, macrohydroxyapatite, Mono Q)
As for B1, the binding result in series [1] was “binds”.

B2: human DMC1-Q244M (natural protein)
chain: MKEDQVVAEEPGFQDEEESLFQDIDLLQKHGINVADIKKLKSVGICTIKGIQMTTRRALCNVKGLSEAKVDKIKEAANKLIEPGFLTAFEYSEKRKMVFHITTGSQEFDKLLGGGIESMAITEAFGEFRTGKTQLSHTLCVTAQLPGAGGYPGGKIIFIDTENTFRPDRLRDIADRFNVDHDAVLDNVLYARAYTSEHQMELLDYVAAKFHEEAGIFKLLIIDSIMALFRVDFSGRGELAERQMKLAQMLSRLQKISEEYNVAVFVTNQMTADPGATMTFQADPKKPIGGHILAHASTTRISLRKGRGELRIAKIYDSPEMPENEATFAITAGGIGDAKE
notes: DMC1, human; site-directed mutant of the DMC1 cDNA in pRSFDuet; Protomer of a helical filament assembled with homologous dsDNA, AMP-PNP and Ca2+; the DNA density was not observable in the map; also called DMC1-Qm; source: E. coli BLR pRARE, purified as described for the WT protein
With B2, the binding result in series [1] is given as “binds”.

B3: Oligo 3/Oligo 4 15 bp homologous dsDNA (dsDNA)
DNA 1: ACGGGCAACAGCTGA
DNA 2: TCAGCTGTTGCCCGT
As to B3, the binding result with DMC1-Q244M (Qm) and in the series with DMC1 WT [2] was “binds” throughout.

B4: human RAD51-V273P/D274G (natural protein)
chain: MAMQMQLEANADTSVEEESFGPQPISRLEQCGINANDVKKLEEAGFHTVEAVAYAPKKELINIKGISEAKADKILAEAAKLVPMGFTTATEFHQRRSEIIQITTGSKELDKLLQGGIETGSITEMFGEFRTGKTQICHTLAVTCQLPIDRGGGEGKAMYIDTEGTFRPERLLAVAERYGLSGSDVLDNVAYARAFNTDHQTQLLYQASAMMVESRYALLIVDSATALYRTDYSGRGELSARQMHLARFLRMLLRLADEFGVAVVITNQVVAQPGGAAMFAADPKKPIGGNIIAHASTTRLYLRKGRGETRICKIYDSPCLPEAEAMFAINADGVGDAKD
notes: RAD51, human; site-directed mutant of the RAD51 cDNA in vector pET11; Protomer of a helical filament assembled on dsDNA with AMP-PNP and Ca2+; also called RAD51-VpDg; RAD51-V273P, D274G mutant
As to B4, the binding result in series [1] is on record as “binds”.

B5: Oligo 3/Oligo 5 15 bp mismatched dsDNA (dsDNA)
DNA 1: ACGGGCAACAGCTGA
DNA 2: TCAGCTGTCGCCCGT
As for B5, the binding result with DMC1 WT [2] (one A-C mismatch) is “binds”.

B6: Oligo 1 80-mer ssDNA (ssDNA)
DNA: TTATGTTCATTTTTTATATCCTTTACTTTATTTTCTCTGTTTATTCATTTACTTATTTTGTATTATCCTTATCTTATTTA
In the case of B6, the binding signal in the series with DMC1-PvGd (setting [4]) was ~60 % of WT binding (approx. 40% lost); with DMC1-QmPvGd (setting [4]), ~40 % of WT binding (approx. 60% lost).

B7: Oligo 1 80-mer ssDNA, unlabeled (ssDNA)
DNA: TTATGTTCATTTTTTATATCCTTTACTTTATTTTCTCTGTTTATTCATTTACTTATTTTGTATTATCCTTATCTTATTTA
For the molecule B7, the binding result with DMC1 WT [3] is given as “binds”.

B8: Oligo 1/Oligo 2 80 bp dsDNA (dsDNA)
DNA 1: TTATGTTCATTTTTTATATCCTTTACTTTATTTTCTCTGTTTATTCATTTACTTATTTTGTATTATCCTTATCTTATTTA
DNA 2: TAAATAAGATAAGGATAATACAAAATAAGTAAATGAATAAACAGAGAAAATAAAGTAAAGGATATAAAAAATGAACATAA
Regarding B8, the figures for the binding signal with DMC1-PvGd (setting [5]) and with DMC1-QmPvGd (setting [5]) were ~60 % of WT binding (approx. 40% lost) and ~40 % of WT binding (approx. 60% lost), respectively.
